Drawing on patent US20040214230A1, this text covers IC50 for 3 molecules.

The labels stand for the following.
B1: human GALP (peptide)
peptide: APAHRGRGGWTLNSAGYLLGPVLHLPQMGDQDGKRETALEILDLWKAIDGLPYSHPPQPS
B2: porcine GALP (peptide)
peptide: APVHRGRGGWTLNSAGYLLGPVLHPPSRAEGGGKGKTALGILDLWKAIDGLPYPQSQLAS
B3: rat GALP (peptide)
peptide: APAHRGRGGWTLNSAGYLLGPVLHLSSKANQGRKTDSALEILDLWKAIDGLPYSRSPRMT

The first assay concerns the target monoclonal antibody GR-2Ca. The assay is described as follows: competitive EIA: GALP varied against HRP-labeled [Cys^43] rat GALP (43-60); GR-2Ca solution of 80 ng/ml on anti-mouse immunoglobulin plate.
By IC50 is commonly meant the concentration needed to halve the response being measured. High values mean lower potency, low ones higher potency. Consider B1, for which the IC50 worked out at 20 nM.

B2 yielded an IC50 of 500 nM.

B3 returned an IC50 of 10 nM.

A further assay deals with monoclonal antibody GR-1Ca. The assay is described as follows: competitive EIA: GALP varied against HRP-labeled [Cys^43] rat GALP (43-60); GR-1Ca solution of 80 ng/ml on anti-mouse immunoglobulin plate.
For B1, the IC50 stood at 7 nM.

In turn, B2 returned an IC50 of 8 nM.

B3: the IC50 amounted to 3 nM.
